The values that follow come from US20150125444A1 (AstraZeneca / MedImmune, published 2015).

The target of assay [1] is Human FcRn (extracellular domain) (human, UniProt P55899 24-297). The assay can be described thus: SPR (ProteOn XPR36), antibody immobilised, steady state, pH 6.0. As to the method:
(§1) Experiments were performed using the ProteOn XPR36 surface plasmon resonance system (Bio Rad). Phosphate buffered saline with 0.005% Tween 20 (PBS/Tween), pH 7.4 was used as running buffer for most experiments with the exception of Human FcRn (extracellular domain) binding in which Phosphate buffered saline with 0.005% Tween 20 (PBS/Tween), pH 6.0 was used. All experiments were performed at 25° C. Antibodies were immobilized on a ProteOn™ GLC Sensor Chip (#176-5011) using EDAC (1-Ethyl-3-[3-dimethylaminopropyl]carbodiimide) and sulfo-NHS (N-hydroxysulfosuccinimide) to an R.U. (response unit) level of 4000-6000. C1q, FcγRI, FcγRIIa, FcγRIIb, FcγRIII(158V), FcγRIII(158F), and FcRn were then flowed over the IgG immobilized surface at various concentrations at a rate of 25 μl/minute for a long enough period of time to achieve steady state, or near steady state. Binding (if any could be determined) was quantified via steady state equilibrium binding analysis using the ProteOn software. Human FcγRI, FcγRIIa, FcγRIIb, FcγRIII(158V), FcγRIII(158F), and FcRn extracellular domains were generated via mammalian expression vectors in house. Human C1q was obtained from Quidel (CA).

The target in assay [2] is T1, Human FcγRIIIa (158V) extracellular domain (human, UniProt P08637 17-208).
T1 construct: extracellular domain; Position 158 is the usual allotype numbering (mature protein), not the precursor numbering of the database entry; also called FcγRIII(158V)
T1 sequence (P08637 17-208 F176V): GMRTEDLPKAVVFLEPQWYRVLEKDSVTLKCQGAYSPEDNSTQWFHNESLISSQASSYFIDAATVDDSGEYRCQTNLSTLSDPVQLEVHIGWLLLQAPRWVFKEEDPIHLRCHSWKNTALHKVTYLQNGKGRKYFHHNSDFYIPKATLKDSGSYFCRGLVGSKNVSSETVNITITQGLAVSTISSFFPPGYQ
The assay can be described thus: SPR (ProteOn XPR36), antibody immobilised, steady state, pH 7.4. The method, then: as §1

Assay [3] has as its target T2, Human FcγRIIIa (158F) extracellular domain (human, UniProt P08637 17-208).
T2 construct: extracellular domain; also called FcγRIII(158F)
The assay is described as above. The method, then: as §1

In assay [4] the target is T3, Human FcγRIIa extracellular domain (human, UniProt P12318 34-217).
T3 construct: extracellular domain
T3 sequence (looked up): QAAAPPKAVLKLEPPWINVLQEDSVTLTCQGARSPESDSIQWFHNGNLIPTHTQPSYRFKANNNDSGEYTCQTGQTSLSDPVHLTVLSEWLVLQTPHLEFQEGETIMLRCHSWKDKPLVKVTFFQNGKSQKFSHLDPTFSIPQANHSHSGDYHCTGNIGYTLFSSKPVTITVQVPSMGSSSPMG
Described as above. The method, then:
as §1

The target in assay [5] is T4, Human FcγRIIb extracellular domain (human, UniProt P31994 43-217).
T4 construct: extracellular domain
T4 sequence (looked up): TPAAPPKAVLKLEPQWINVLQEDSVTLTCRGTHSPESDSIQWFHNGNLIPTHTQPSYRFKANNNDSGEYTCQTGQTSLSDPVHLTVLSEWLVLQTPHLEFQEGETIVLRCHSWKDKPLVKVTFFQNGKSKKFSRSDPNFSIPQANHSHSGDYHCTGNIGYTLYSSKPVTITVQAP
The assay is described as above. As to the method: as §1

In assay [6] the target is T5, Human FcγRIa extracellular domain (human, UniProt P12314 16-292).
T5 construct: extracellular domain
T5 sequence (P12314 16-292): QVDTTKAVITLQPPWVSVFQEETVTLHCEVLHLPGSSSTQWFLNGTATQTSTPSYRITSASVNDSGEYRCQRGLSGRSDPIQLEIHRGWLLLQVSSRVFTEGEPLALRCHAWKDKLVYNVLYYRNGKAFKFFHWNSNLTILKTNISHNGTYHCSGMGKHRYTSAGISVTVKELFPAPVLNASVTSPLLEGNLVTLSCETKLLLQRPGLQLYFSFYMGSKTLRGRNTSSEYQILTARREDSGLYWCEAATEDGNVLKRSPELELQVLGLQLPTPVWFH
Described as above. The method, then:
as §1

Assay [7] has as its target T6, Human C1q (human, UniProt P02745 23-245; P02746 28-253; P02747 29-245).
T6 construct: Bought complement protein; In the CDC assay C1q came with human serum
The description is as above. The method, then:
as §1

T6 sequence (P02745 23-245 limits assumed, chain 1 of 3): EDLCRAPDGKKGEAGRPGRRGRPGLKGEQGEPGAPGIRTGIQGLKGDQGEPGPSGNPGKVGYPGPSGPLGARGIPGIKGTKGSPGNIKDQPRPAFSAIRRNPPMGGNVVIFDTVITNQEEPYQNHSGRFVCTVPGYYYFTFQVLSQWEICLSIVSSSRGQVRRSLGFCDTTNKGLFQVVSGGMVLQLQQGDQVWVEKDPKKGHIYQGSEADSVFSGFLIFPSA
T6 sequence (P02746 28-253 limits assumed, chain 2 of 3): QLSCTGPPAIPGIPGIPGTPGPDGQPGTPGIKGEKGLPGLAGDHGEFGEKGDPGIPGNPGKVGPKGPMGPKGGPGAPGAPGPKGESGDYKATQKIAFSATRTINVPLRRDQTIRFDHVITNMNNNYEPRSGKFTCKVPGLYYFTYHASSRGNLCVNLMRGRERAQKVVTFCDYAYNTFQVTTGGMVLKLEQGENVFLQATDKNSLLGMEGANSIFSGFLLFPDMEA
T6 sequence (P02747 29-245 limits assumed, chain 3 of 3): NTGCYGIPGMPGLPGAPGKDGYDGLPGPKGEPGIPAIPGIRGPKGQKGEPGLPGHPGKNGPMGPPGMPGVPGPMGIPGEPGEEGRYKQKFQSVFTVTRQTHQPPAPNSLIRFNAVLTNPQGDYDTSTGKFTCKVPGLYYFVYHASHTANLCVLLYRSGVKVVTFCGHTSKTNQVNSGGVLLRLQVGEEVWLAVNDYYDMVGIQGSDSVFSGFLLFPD
T2 sequence (P08637 17-208): as the sequence (P08637 17-208 F176V) above, with V160F counted along it
Chain of Human FcRn (extracellular domain) (P55899 24-297): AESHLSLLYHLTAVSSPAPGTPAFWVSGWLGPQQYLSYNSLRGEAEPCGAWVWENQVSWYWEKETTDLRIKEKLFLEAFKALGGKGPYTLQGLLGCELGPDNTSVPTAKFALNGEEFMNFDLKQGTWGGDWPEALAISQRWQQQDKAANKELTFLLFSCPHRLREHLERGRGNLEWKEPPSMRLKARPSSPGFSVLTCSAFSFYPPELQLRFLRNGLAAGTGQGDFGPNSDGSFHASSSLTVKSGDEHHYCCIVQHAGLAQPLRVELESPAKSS

B1: Ab3 (anti-CD20 antibody HB20.3) with wild-type IgG1 Fc domain (antibody)
heavy: not shown
light: DIQMTQSPASLSASVGETVTITCRASGNIHNYLAWYQQKQGKSPQLLVYNAKTLADGVPSRFSGSGSGTQFSLKINSLQPEDFGSYYCQHFWSTPWTFGGGTKLEIKRTVAAPSVFIFPPSDEQLKSGTASVVCLLNNFYPREAKVQWKVDNALQSGNSQESVTEQDSKDSTYSLSSTLTLSKADYEKHKVYACEVTHQGLSSPVTKSFNRGEC
notes: Full human IgG1 kappa antibody; also called Ab3 WT; WT
By Kd is commonly meant the constant that tells how readily two partners part at equilibrium. The low end stands for a tighter complex, the high end for a looser complex. Turning to B1, the Kd in assay [1] amounted to 670 nM; in assay [2], 900 nM; in assay [3], 4700 nM; in assay [4] it was 1200 nM; in assay [5], 6000 nM; in assay [6], 78 nM. In assay [7], the Kd came out at 103 nM.

B2: Ab3 (anti-CD20 antibody HB20.3) with YTE variant IgG1 Fc domain (antibody)
heavy: QVQLQQPGAELVKPGASVKMSCKASGFTFTNYNMHWLKQTPGQGLEWIGAIYPENGDTSYNQKFKGKATLTADKASSTAYMHLSSLTSEDSAVYFCARFYYYGSYYGAMDYWGQGTSVTVSSASTKGPSVFPLAPSSKSTSGGTAALGCLVKDYFPEPVTVSWNSGALTSGVHTFPAVLQSSGLYSLSSVVTVPSSSLGTQTYICNVNHKPSNTKVDKRVEPKSCDKTHTCPPCPAPELLGGPSVFLFPPKPKDTLYITREPEVTCVVVDVSHEDPEVKFNWYVDGVEVHNAKTKPREEQYNSTYRVVSVLTVLHQDWLNGKEYKCKVSNKALPAPIEKTISKAKGQPREPQVYTLPPSREEMTKNQVSLTCLVKGFYPSDIAVEWESNGQPENNYKTTPPVLDSDGSFFLYSKLTVDKSRWQQGNVFSCSVMHEALHNHYTQKSLSLSPGK
light: DIQMTQSPASLSASVGETVTITCRASGNIHNYLAWYQQKQGKSPQLLVYNAKTLADGVPSRFSGSGSGTQFSLKINSLQPEDFGSYYCQHFWSTPWTFGGGTKLEIKRTVAAPSVFIFPPSDEQLKSGTASVVCLLNNFYPREAKVQWKVDNALQSGNSQESVTEQDSKDSTYSLSSTLTLSKADYEKHKVYACEVTHQGLSSPVTKSFNRGEC
notes: Full IgG1; also called Ab3 YTE
Consider B2, for which the Kd in assay [1] amounted to 235 nM; in assay [2] it was 800 nM; in assay [3], 6100 nM; in assay [4], 2800 nM; in assay [5], 1600 nM; in assay [6], 140 nM. In addition, the Kd in assay [7] turned out to be 70 nM.

B3: Ab4 (anti-C5a antibody 1B8) with wild-type IgG1 Fc domain (antibody)
heavy: not shown
light: QSALTQPPSASGTPGQRVTISCSGTNSNIGSNYVFWYQQLPGTAPKLLIFESNRRPSGVPDRFSGSKSDTSASLAISGLRSEDEADYYCATWDDTLIAPVFGSGTKVTVLGQPKANPTVTLFPPSSEELQANKATLVCLISDFYPGAVTVAWKADSSPVKAGVETTTPSKQSNNKYAASSYLSLTPEQWKSHRSYSCQVTHEGSTVEKTVAPAEC
notes: Full human IgG1 lambda antibody; also called Ab4 WT; WT
B3: the Kd was found to be 1070 nM in assay [1]; 380 nM in assay [2]; 1600 nM in assay [3]; 1000 nM in assay [4]; 2500 nM in assay [5]; 31 nM in assay [6]. Also, in assay [7], the Kd was 250 nM.

B4: Ab4 (anti-C5a antibody 1B8) with FES-YTE variant IgG1 Fc domain (antibody)
heavy: EVQLLESGGGLVQPGGSLRLSCAASGFTFSSYVMNWVRQAPGKGLEWVSSISPSGGRTWYADSVKGRFTISRDNSKNTLYLQMNSLRAEDTAVYYCARSDGSAAGFLGYWGQGTLVTVSSASTKGPSVFPLAPSSKSTSGGTAALGCLVKDYFPEPVTVSWNSGALTSGVHTFPAVLQSSGLYSLSSVVTVPSSSLGTQTYICNVNHKPSNTKVDKRVEPKSCDKTHTCPPCPAPEFEGGPSVFLFPPKPKDTLYITREPEVTCVVVDVSHEDPEVKFNWYVDGVEVHNAKTKPREEQYNSTYRVVSVLTVLHQDWLNGKEYKCKVSNKALPASIEKTISKAKGQPREPQVYTLPPSREEMTKNQVSLTCLVKGFYPSDIAVEWESNGQPENNYKTTPPVLDSDGSFFLYSKLTVDKSRWQQGNVFSCSVMHEALHNHYTQKSLSLSPGK
light: QSALTQPPSASGTPGQRVTISCSGTNSNIGSNYVFWYQQLPGTAPKLLIFESNRRPSGVPDRFSGSKSDTSASLAISGLRSEDEADYYCATWDDTLIAPVFGSGTKVTVLGQPKANPTVTLFPPSSEELQANKATLVCLISDFYPGAVTVAWKADSSPVKAGVETTTPSKQSNNKYAASSYLSLTPEQWKSHRSYSCQVTHEGSTVEKTVAPAEC
notes: Full IgG1; also called Ab4 FES-YTE
For the molecule B4, binding in assay [1] was put at a Kd of 270 nM. That is a sub-micromolar value.

B5: Ab4 (anti-C5a antibody 1B8) with FQG-YTE variant IgG1 Fc domain (antibody)
heavy: EVQLLESGGGLVQPGGSLRLSCAASGFTFSSYVMNWVRQAPGKGLEWVSSISPSGGRTWYADSVKGRFTISRDNSKNTLYLQMNSLRAEDTAVYYCARSDGSAAGFLGYWGQGTLVTVSSASTKGPSVFPLAPSSKSTSGGTAALGCLVKDYFPEPVTVSWNSGALTSGVHTFPAVLQSSGLYSLSSVVTVPSSSLGTQTYICNVNHKPSNTKVDKRVEPKSCDKTHTCPPCPAPEFQGGPSVFLFPPKPKDTLYITREPEVTCVVVDVSHEDPEVKFNWYVDGVEVHNAKTKPREEQYNSTYRVVSVLTVLHQDWLNGKEYKCKVSNKALPAGIEKTISKAKGQPREPQVYTLPPSREEMTKNQVSLTCLVKGFYPSDIAVEWESNGQPENNYKTTPPVLDSDGSFFLYSKLTVDKSRWQQGNVFSCSVMHEALHNHYTQKSLSLSPGK
light: QSALTQPPSASGTPGQRVTISCSGTNSNIGSNYVFWYQQLPGTAPKLLIFESNRRPSGVPDRFSGSKSDTSASLAISGLRSEDEADYYCATWDDTLIAPVFGSGTKVTVLGQPKANPTVTLFPPSSEELQANKATLVCLISDFYPGAVTVAWKADSSPVKAGVETTTPSKQSNNKYAASSYLSLTPEQWKSHRSYSCQVTHEGSTVEKTVAPAEC
notes: Full IgG1; also called Ab4 FQG-YTE
In assay [1], B5 registered a Kd of 350 nM. Besides, the binding result in assay [2], in assay [3], in assay [4], in assay [5], in assay [6] and in assay [7] was “no binding” each time.

B6: Ab4 (anti-C5a antibody 1B8) with FQQ-YTE variant IgG1 Fc domain (antibody)
heavy: EVQLLESGGGLVQPGGSLRLSCAASGFTFSSYVMNWVRQAPGKGLEWVSSISPSGGRTWYADSVKGRFTISRDNSKNTLYLQMNSLRAEDTAVYYCARSDGSAAGFLGYWGQGTLVTVSSASTKGPSVFPLAPSSKSTSGGTAALGCLVKDYFPEPVTVSWNSGALTSGVHTFPAVLQSSGLYSLSSVVTVPSSSLGTQTYICNVNHKPSNTKVDKRVEPKSCDKTHTCPPCPAPEFQGGPSVFLFPPKPKDTLYITREPEVTCVVVDVSHEDPEVKFNWYVDGVEVHNAKTKPREEQYNSTYRVVSVLTVLHQDWLNGKEYKCQVSNKALPAPIEKTISKAKGQPREPQVYTLPPSREEMTKNQVSLTCLVKGFYPSDIAVEWESNGQPENNYKTTPPVLDSDGSFFLYSKLTVDKSRWQQGNVFSCSVMHEALHNHYTQKSLSLSPGK
light: QSALTQPPSASGTPGQRVTISCSGTNSNIGSNYVFWYQQLPGTAPKLLIFESNRRPSGVPDRFSGSKSDTSASLAISGLRSEDEADYYCATWDDTLIAPVFGSGTKVTVLGQPKANPTVTLFPPSSEELQANKATLVCLISDFYPGAVTVAWKADSSPVKAGVETTTPSKQSNNKYAASSYLSLTPEQWKSHRSYSCQVTHEGSTVEKTVAPAEC
notes: Full IgG1; also called Ab4 FQQ-YTE
On to B6, for which, in assay [1], the Kd worked out at 290 nM. For the same molecule, the binding result in assay [2], in assay [3], in assay [4], in assay [5], in assay [6] and in assay [7] was “no binding” throughout.
